Reference: publication PMC4305291

Target: integrin αIIb_W968C (human)
Assay: cross-linking; disulfide between engineered cysteines in cells; S35-labelled CHO cells lysed, immunoprecipitated with anti-αIIb mAb 10E5 and protein G-Sepharose, SDS-PAGE with or without 2 mM DTT, radioautography

Substance: integrin β3_I693C (from UniProt P05106 27-788) (natural protein)
- efficiency of disulfide formation: 100%
